# Experimental data taken from patent US10815297B2, “Antagonists of IL17C for the treatment of inflammatory disorders” (MorphoSys AG, priority 2011, dated 2020).
# B1: MOR12743: anti-mouse IL17C HuCAL antibody; CDRs SEQ ID NO: 31-36, VL 37, VH 38; human/mouse chimeric IgG2a (antibody, V domains shown)
# VH: QVQLVQSGAEVKKPGASVKVSCKASGYTFTSNFIHWVRQAPGQGLEWMGWISPYNGDTNYAQKFQGRVTMTRDTSISTAYMELSRLRSEDTAVYYCARESVYYGSDYGYNGMDIWGQGTLVTVSS
# VL: DIELTQPPSVSVSPGQTASITCSGDNLGEEYVSWYQQKPGQAPVLVIYDDTKRPSGIPERFSGSNSGNTATLTISGTQAEDEADYYCASWDLWSVEVFGGGTKLTVLGQ
# modifications: mouse IgG2a constant regions; VH; VL
# What was measured:
# [1] = tested on: TS-exposed mice (C57BL/6J), pulmonary inflammation; test: Tobacco smoke model, cells recovered in bronchoalveolar lavage; type: in vivo, mouse
# Protocol: The response consisted of significant increases in the numbers of macrophages, epithelial cells, neutrophils and lymphocytes recovered in BAL.
# Vehicle (PBS), MOR12743 and MOR03207 were administered i.p., 1 h prior to TS-exposure on days 1, 4, 7 and 10 of the study. Roflumilast was administered p.o., 1 h prior to each TS-exposure.
# In this exposure protocol, mice were exposed in groups of 5 in clear polycarbonate chambers (27 cm×16 cm×12 cm). The TS from ‘Marlboro 100’ cigarettes was allowed to enter the exposure chambers at a flow rate of 100 mL/min. In order to minimise any potential problems caused by repeated exposure to a high level of TS, the exposure period to TS was increased initially from 25 minutes at the start of the study (day 1) to a maximum of 45 minutes on day 3. The exposure schedule used in this study was as follows:
# The trachea was cannulated using a 10 mm long Luer fitting stainless steel cannula. Phosphate buffered saline (PBS) was used as the lavage fluid. A volume of 0.4 mL was gently instilled and withdrawn 3 times using a 1 mL syringe and then placed in an Eppendorf tube and kept on ice prior to subsequent determinations.
# Lavage fluid was separated from cells by centrifugation (6 min at 3400 rpm, RCF=3070×g—‘Eppendorf Mini Spin’) and the supernatant decanted and frozen for possible subsequent analysis. The cell pellet was re-suspended in a known volume of PBS and total cell numbers calculated by counting a stained (Turks stain) aliquot under a microscope using a haemocytometer.
# The residual cell pellet was diluted to approximately 10^5 cells per mL. A volume of 500 μl was placed in the funnel of a cytospin slide and centrifuged for 8 min at 800 rpm, RCF=72.26×g (Shandon Cytospin 3). The slide was air-dried and stained using Wrights/Giemsa stain as per the proprietary instructions. When dried and cover-slipped, differential cell-counts were performed using light microscopy. Approximately 400 cells were counted for each slide. Cells were identified using standard morphometric techniques.
# In this study, 4 groups of mice were subjected to daily TS-exposure for 11 days and were sacrificed on the 12th day, 24 h after the final TS-exposure. Three groups received either vehicle (D-PBS), MOR12743 or MOR03207, i.p., 1 h prior to TS-exposure on days 1, 4, 7 and 10 of the study. One group received Roflumilast, p.o., 1 h prior to each TS-exposure. A further group was exposed to air for 11 consecutive days and sacrificed on the 12th day, 24 h after the final air-exposure. This group received vehicle (D-PBS), i.p., 1 h prior to exposure on days 1, 4, 7 and 10 of the study. For all groups n=10.
# All mice were killed on day 12, by intra-peritoneal barbiturate anaesthetic overdose, 24 h after final exposure to air or TS. A blood sample was taken over heparin from the sub-clavian vein and the plasma separated by centrifugation and stored at −40° C. A BAL was performed using 0.4 mL of phosphate buffered saline (PBS). Cells recovered from the BAL were used for the total cell and differential cell counts. The BAL supernatants and remaining cell pellet were stored at −40° C. and −80° C. respectively for possible future analysis. Following BAL, the cannula was left tied in place. The heart and lungs were removed after gently opening the thorax and cutting down either side of the sternum and ribs. The left lobe was tied off, removed, snap-frozen and stored at −80° C. The right lobe was inflated with 10% phosphate buffered formalin (PBF) to a pressure of 18 cm of PBF for 20 minutes. The trachea was then ligated below the cannula and the cannula removed. The heart, lung & trachea were immersed in PBF.
# The data were therefore initially subjected to a one-way analysis of variance test (ANOVA), followed by a Bonferroni correction for multiple comparisons in order to test for statistically significant differences between treatment groups. A “p” value of <0.05 was considered to be statistically significant. […]
# [2] = tested on: BALB/c female mice, LPS-induced acute lung neutrophilia; test: Intranasal instillation of LPS, mouse model of acute lung neutrophilia; type: in vivo; conditions: single treatment 5 mg/kg i.p. 24 hours before LPS instillation; BAL 24 hours after LPS
# Protocol: Two independent studies were conducted with one negative mAb and two positive mAbs in the intranasal instillation of Lipopolysaccharide (LPS) mouse model of acute lung neutrophilia, a model which mimics some relevant aspects of COPD (Chronic Obstructive Pulmonary Disease). The effects were measured by Broncho Alveolar Lavage (BAL) inflammatory cell counting.
# Several groups of mice were treated with different antibodies and Dexamethasone and compared to the mice subjected to LPS only.
# BALB/c female mice from Harlan (France) were used in the study. Mice weight was around 20 g.
# Mice were anesthetized by isoflurane inhalation. During the breathing, LPS was instilled intranasally. After 24 h, mice were anesthetized intra-peritoneally (IP) and Broncho Alveolar Lavage procedure was performed. Mice were anesthetized by injection of anaesthetic solution of 0.1 mL per 10 g of the mouse weight. The anaesthetic solution was composed of 18 ml 0.9% NaCl, 0.5 mL xylazine (5 mg/Kg) and 1.5 mL ketamine (75 mg/Kg).
# The trachea was exposed through midline incision and canulated (with a mice catheter). BAL was performed twice using 1 mL of sterile PBS buffer. […] The cells were counted using a cell counter (Vet abc, France). […]
# For all groups, BAL was performed 24 hours after LPS administration and cell counts were measured.
# The results were analyzed using Student t-test. […]
# [3] = 5 mg/kg i.p. on days 1, 4, 7 & 10
molecule,measurement,setting,value
B1,Inhibition of epithelial cells in BAL,[1]; [3],52%
same,Inhibition of lymphocytes in BAL,[1]; [3],24%
same,Inhibition of macrophages in BAL,[1]; [3],6%
same,Inhibition of neutrophils in BAL,[1]; [3],48%
same,Inhibition of total cells in BAL,"[1]; 5 mg/kg i.p. on days 1, 4, 7 & 10, 1 h prior to TS-exposure, BAL 24 h after last of 11 daily exposures",26%
same,inhibition of the recruitment of inflammatory cells into the BALF,[2],inhibited significantly
